Assay results from patent publication US20190071499A1 (published 2019).

Assays:
Experiment in all cases: SPR
human IFN-ω = human IFN-ω (human, UniProt P05000 24-195)
human IFN-α4 = target: T1, human IFN-α4 (human, UniProt P05014 24-189)
T1 chain: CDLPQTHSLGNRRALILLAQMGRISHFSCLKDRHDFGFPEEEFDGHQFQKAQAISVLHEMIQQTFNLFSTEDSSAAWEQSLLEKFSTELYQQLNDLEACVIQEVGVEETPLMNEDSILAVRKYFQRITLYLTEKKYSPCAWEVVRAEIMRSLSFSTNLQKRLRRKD

human IFN-α14 = target: T2, human IFN-α14 (human, UniProt P01570 24-189)
T2 chain: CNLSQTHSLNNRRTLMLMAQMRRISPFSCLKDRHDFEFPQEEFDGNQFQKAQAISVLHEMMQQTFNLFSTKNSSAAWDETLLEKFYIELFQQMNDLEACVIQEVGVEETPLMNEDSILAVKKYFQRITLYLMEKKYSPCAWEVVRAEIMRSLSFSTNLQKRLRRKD

Sequence of human IFN-ω (P05000 24-195): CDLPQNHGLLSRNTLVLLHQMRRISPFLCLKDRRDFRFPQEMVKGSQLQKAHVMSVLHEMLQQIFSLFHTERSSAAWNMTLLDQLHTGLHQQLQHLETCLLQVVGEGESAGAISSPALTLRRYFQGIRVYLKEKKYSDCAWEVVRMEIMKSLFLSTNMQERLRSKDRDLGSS

- Kd (human IFN-ω): 0.125 pM
- Kd (human IFN-α4): 0.0375 pM
- Kd (human IFN-α14): 0.0328 pM
B1: 26B9 (antibody, V domains shown)
VH: QILLQESGPGLVKPTETLSLTCSVSGDSISDSSHYWAWIRQPPGKGPEWIGSVYFSSMTHYNPSLKSRVSISVDKPKNQFSLKVTSVTVADTATYYCARQALARVGAMNWFDPWGQGSLVTVSS
VL: DIIMTQSPDSLPVSLGEGVTINCKSSQSVFFTSSNKSCLAWYQQKPGKSPKLLIYWASTRQSGVPDRFRGSGSGTDFSLTITSLQAEDVAVYFCQQCQTSPPTFGGGTRLEIKR
